What all share (assay): fluorescence polarisation
On the technique in general: Polarisation of emitted light reports the rotation of a fluorescent probe.

Assay [1] has as its target T1, chloroplast signal recognition particle 43-kDa protein (cpSRP43), wild type, full length (A. thaliana, UniProt O22265 57-373).
T1 sequence: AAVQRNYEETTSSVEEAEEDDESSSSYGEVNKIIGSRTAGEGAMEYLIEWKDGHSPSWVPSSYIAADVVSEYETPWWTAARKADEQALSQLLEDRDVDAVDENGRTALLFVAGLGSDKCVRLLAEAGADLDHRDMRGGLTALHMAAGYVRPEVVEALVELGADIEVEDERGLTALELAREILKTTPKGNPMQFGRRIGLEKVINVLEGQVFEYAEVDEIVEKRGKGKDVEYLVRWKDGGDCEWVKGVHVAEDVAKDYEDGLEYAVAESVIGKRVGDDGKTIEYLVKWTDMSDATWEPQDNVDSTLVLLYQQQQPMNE

The target of assay [2] is T1, chloroplast signal recognition particle …. This is another data set of the same source.
Assay [3] shares this target. The source holds these as a separate data set.

This passage reports Kd results from article PMC12164976 (Science Advances, 2025).

Read-outs that look alike come from different tables or passages of the source. No end group written: not given here.

B1: HiLyte Fluor 488-labeled L11 peptide (peptide)
peptide: GSFDPLGLADD
modifications: also: HiLyte Fluor 488 label, position not given here
As for B1, the values for the Kd in assay [1], in assay [2] and in assay [3] were 0.71 µM, 0.028 µM and 0.012 µM, respectively.

B2: fluorescein-labeled 54C peptide (peptide)
peptide: QKQKAPPGTARRKRKAC
modifications: also: fluorescein label, position not given here
For the molecule B2, the Kd – broadly, the constant that tells how readily two partners part at equilibrium – in assay [1] came to 5 µM; in assay [2], 0.23 µM; in assay [3], 0.036 µM.
